The assay is described as follows: biochemical tests of B12 binding. As to conditions: purified recombinant transcobalamin expressed in A. oryzae. From the text:
The entire process was scalable to produce the protein in large batches. Afterwards, the inventors feedbacked the expression information (RNAseq) to the machine learning to create better constructs until reaching optimal transcobalamin expression.

B1: transcobalamin: recombinant bovine transcobalamin secreted from A. oryzae and purified from the harvested medium; TC2 expression confirmed (protein, UniProt Q9XSC9 19-432, looked up)
Transcobalamin-2: NICEITEVDSTLVERLGQRLLPWMDRLSQEQLNPSIYVGLRLSSLQAGAKEAHYLHSLKLSYQQSLLRPASNKDDNDSEAKPSMGQLALYLLALRANCEFIGGRKGDRLVSQLKRFLEDEKRAIGHNHQGHPRTSYYQYSLGILALCVHQKRVHDSVVGKLLYAVEHKPHLLQDHVSVDTMAMAGMAFSCLELSNLNPKQRNRINLALKRVQEKILKAQTPEGYFGNVYSTPLALQLLMGSLRPSVELGTACLKAKAALQASLQHKTFQNPLMISQLLPVLNQKSYVDLISPDCQAPRALLEPALETPPQAKVPKFIDVLLKVSGISPSYRHSVSVPAGSSLEDILKNAQEHGRFRFRTQASLSGPFLTSVLGRKAGEREFWQVLRDPDTPLQQGIADYRPKDGETIELRLVGW
As to B1, the B12 binding entry is reported as “effective B12 binding”.

(Values after US20240407381A1, “FOOD COMPOSITIONS COMPRISING RECOMBINANT CELLS COMPRISING TRANSCOBALAMIN” (IMAGINDAIRY LTD., priority 2021, published 2024).)
